Values of other authors as cited in paper PMC4980809.

Molecular target: titin ZR7 (Homo sapiens) (UniProt Q8WZ42)
Sequence (Q8WZ42 692-740): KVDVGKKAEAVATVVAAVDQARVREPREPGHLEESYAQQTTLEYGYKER

alpha-actinin-2 EF3/4 domain, sequence (P35609 823-894): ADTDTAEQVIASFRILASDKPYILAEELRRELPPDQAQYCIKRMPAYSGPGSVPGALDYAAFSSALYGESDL

- Kd: 380 nM
Substance: alpha-actinin-2 EF3/4 domain (from UniProt P35609)
